Data reported in the supplement of paper PMC7877785.
± gives the uncertainty stated by the source.

Experiment: self-splicing fitness, log relative to wild type (ln ratio); higher = more splicing; Tetrahymena group I intron in knt gene, E. coli kanamycin selection, DiMSum; sequences stand for … in CUCUCU…GGAGGGAAAAGUUAUCAGGCAUGCACCUGGUAGCUAGUCUUUAAACCAAUAGAUUGCAUCGGUUUAAAAGGCAAGACCGUCAAAUUGCGGGAAAGGGGUCAACAGCCGUUCAGUACCAAGUCUCAGGGGAAACUUUGAGAUGGCCUUGCAAAGGGUAUGGUAAUAAGCUGACGGACAUGGUCCUAACCACGCAGCCAAGUCCUAAGUCAACAGAUCUUCUGUUGAUAUGGAUGCAGUUCACAGACUAAAUGUCGGUCGGGGAAGAUGUAUUCUUCUCAUAAGAUAUAGUCGGACCUCUCCUUAAUGGGAGCUAGCGGAUGAAGUGAUGCAACACUGGAGCCGCUGGGAACUAAUUUGUAUGCGAAAGUAUAUUGAUUAGUUUUGGAGUACUCGUGGUCG
Summary of the method: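 Pooled colonies went to amplicon sequencing on an Illumina HiSeq 2500 after six replicate transformations. The plates were LB agar with 100 μg/mL carbenicillin, 50 μM IPTG and 0.2% rhamnose, with or without 25 μg/mL kanamycin, incubated overnight at 37°C or 30°C. The E. coli BL21(DE3) library had all eight P1ex-region intron nucleotides randomised, the intron placed in the knt kanamycin-resistance gene on pET-22b(+). DiMSum fitness is the error-weighted combination of replicate fold changes, kanamycin against none, normalised to wild type.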

Sequence	self-splicing fitness (ln) (37 °C)	self-splicing fitness (ln) (30 °C)
CCGAAGCAAUAUUACGAAGC	-1.59 ± 0.24	–
AGAGAGCAAUAUUACGGCCC	-1.71 ± 0.48	-1.82 ± 0.28
AACAAGCAAUAUUACGGACC	-0.201 ± 0.11	-1.84 ± 0.1
CCCGAGCAAUAUUACGCGGG	-3.45 ± 0.3	-3.54 ± 0.17
AUAUAGCAAUAUUACGUUCA	-0.707 ± 0.23	-0.388 ± 0.23
CGGGAGCAAUAUUACGUCUU	-0.499 ± 0.36	–
GCCGAGCAAUAUUACGAACC	0.455 ± 0.41	-0.807 ± 0.22
CUUCAGCAAUAUUACGCAAA	-2.21 ± 0.33	-2.99 ± 0.26
UAGCAGCAAUAUUACGUACA	-0.0473 ± 0.1	-1.16 ± 0.091
UAUAAGCAAUAUUACGCUAG	-0.688 ± 0.23	-2 ± 0.18
GAAAAGCAAUAUUACGUCGG	-2.89 ± 0.24	-4.39 ± 0.32
ACGGAGCAAUAUUACGGUUG	-2.22 ± 0.18	-3.93 ± 0.31
AGCCAGCAAUAUUACGCCCG	-1.61 ± 0.36	-1.94 ± 0.47
CCCUAGCAAUAUUACGAGAC	-2.69 ± 0.34	-3.85 ± 0.22
CGAGAGCAAUAUUACGAGAC	–	-2.64 ± 0.46
CAGCAGCAAUAUUACGCCAG	0.0215 ± 0.12	-0.865 ± 0.089
AAUCAGCAAUAUUACGAGGU	-1.36 ± 0.15	-2.3 ± 0.12
AAACAGCAAUAUUACGGCCG	-0.732 ± 0.16	-1.69 ± 0.13
UAAUAGCAAUAUUACGGUAC	-2.37 ± 0.37	-3.69 ± 0.43
UCAAAGCAAUAUUACGAUGC	-0.924 ± 0.15	-2.78 ± 0.15
GACCAGCAAUAUUACGCUUC	-1.66 ± 0.14	-2.01 ± 0.1
AUAUAGCAAUAUUACGACCG	0.433 ± 0.41	-1.62 ± 0.22

Sequence	self-splicing fitness (ln) (37 °C)	self-splicing fitness (ln) (30 °C)
CCUUAGCAAUAUUACGUGCA	-3.76 ± 0.28	-3.43 ± 0.23
AUCCAGCAAUAUUACGUCGA	-0.557 ± 0.12	-0.897 ± 0.097
AGUGAGCAAUAUUACGCUAC	-2.3 ± 0.23	-2.96 ± 0.16
GAAAAGCAAUAUUACGGUGG	-1.66 ± 0.15	-3.78 ± 0.2
CACGAGCAAUAUUACGCUUC	-3.25 ± 0.3	-3.96 ± 0.24
UUACAGCAAUAUUACGAUUU	-0.22 ± 0.084	-1.09 ± 0.059
AUGAAGCAAUAUUACGCUAA	-0.00859 ± 0.13	-1.32 ± 0.1
ACGUAGCAAUAUUACGUUAU	-2.34 ± 0.16	-3.76 ± 0.17
GGCCAGCAAUAUUACGGUUA	-0.541 ± 0.067	0.0773 ± 0.069
UGGGAGCAAUAUUACGUACA	-0.889 ± 0.42	-1.26 ± 0.22
AUAAAGCAAUAUUACGCGGU	-0.6 ± 0.11	-1.8 ± 0.12
CAACAGCAAUAUUACGUCAC	-2.26 ± 0.18	-3.96 ± 0.24
UGCAAGCAAUAUUACGGAAC	-0.851 ± 0.25	–
AACUAGCAAUAUUACGAGCG	-0.592 ± 0.098	-0.883 ± 0.089
CUACAGCAAUAUUACGCAUU	-2.83 ± 0.25	–
CUAGAGCAAUAUUACGGAUC	-3.06 ± 0.4	-3.28 ± 0.15
UAACAGCAAUAUUACGAGGA	-1.49 ± 0.14	-3.13 ± 0.2
UACCAGCAAUAUUACGCGGU	-3.47 ± 0.2	-4.05 ± 0.17
UGCAAGCAAUAUUACGCUAG	-2.42 ± 0.33	-2.55 ± 0.27
CACCAGCAAUAUUACGAUCU	-2.43 ± 0.15	-4.3 ± 0.23
GAUUAGCAAUAUUACGCCUU	-0.304 ± 0.12	-0.529 ± 0.11
